Values quoted from earlier work as cited in publication PMC10825016.
Where two headings read alike, the source gives them in different places.

What was measured:
[1] = target: GrpE (Escherichia coli) (UniProt P09372)
[2] = target: GrpE (Escherichia coli) (UniProt P09372); remark: listed apart in the source

Chain of DnaK (P0A6Y8 2-638): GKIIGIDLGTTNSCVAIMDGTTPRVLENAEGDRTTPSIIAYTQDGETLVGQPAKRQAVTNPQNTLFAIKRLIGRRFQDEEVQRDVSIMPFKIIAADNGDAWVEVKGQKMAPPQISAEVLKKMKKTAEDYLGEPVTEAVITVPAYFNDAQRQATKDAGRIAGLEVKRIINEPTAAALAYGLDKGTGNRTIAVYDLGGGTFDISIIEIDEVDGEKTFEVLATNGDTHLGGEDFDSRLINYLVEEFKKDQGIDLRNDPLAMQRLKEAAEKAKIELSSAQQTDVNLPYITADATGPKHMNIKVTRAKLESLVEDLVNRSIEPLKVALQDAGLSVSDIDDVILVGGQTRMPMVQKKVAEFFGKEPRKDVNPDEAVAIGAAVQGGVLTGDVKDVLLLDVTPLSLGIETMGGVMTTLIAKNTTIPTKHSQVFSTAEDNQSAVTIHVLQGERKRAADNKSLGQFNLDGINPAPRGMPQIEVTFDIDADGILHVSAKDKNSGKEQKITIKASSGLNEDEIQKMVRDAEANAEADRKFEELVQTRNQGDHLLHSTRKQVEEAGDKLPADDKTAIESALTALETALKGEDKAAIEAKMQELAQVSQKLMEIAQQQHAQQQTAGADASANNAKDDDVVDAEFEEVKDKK
Chain of GrpE (Escherichia coli) (P09372 whole entry): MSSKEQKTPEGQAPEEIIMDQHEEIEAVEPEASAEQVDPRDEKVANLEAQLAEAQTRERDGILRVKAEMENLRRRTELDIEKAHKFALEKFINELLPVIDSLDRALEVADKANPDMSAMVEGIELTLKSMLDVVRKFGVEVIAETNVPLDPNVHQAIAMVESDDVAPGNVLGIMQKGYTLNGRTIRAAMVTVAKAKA

Kd [1]: 11 nM
Kd [2]: 220 nM
Substance: DnaK (from UniProt P0A6Y8)
